Measurements published in paper PMC12239813.

Target: human FLT3 receptor (human) (UniProt P36888)
Assay: SPR

Sequence of UniProt P36888 (P36888 27-993): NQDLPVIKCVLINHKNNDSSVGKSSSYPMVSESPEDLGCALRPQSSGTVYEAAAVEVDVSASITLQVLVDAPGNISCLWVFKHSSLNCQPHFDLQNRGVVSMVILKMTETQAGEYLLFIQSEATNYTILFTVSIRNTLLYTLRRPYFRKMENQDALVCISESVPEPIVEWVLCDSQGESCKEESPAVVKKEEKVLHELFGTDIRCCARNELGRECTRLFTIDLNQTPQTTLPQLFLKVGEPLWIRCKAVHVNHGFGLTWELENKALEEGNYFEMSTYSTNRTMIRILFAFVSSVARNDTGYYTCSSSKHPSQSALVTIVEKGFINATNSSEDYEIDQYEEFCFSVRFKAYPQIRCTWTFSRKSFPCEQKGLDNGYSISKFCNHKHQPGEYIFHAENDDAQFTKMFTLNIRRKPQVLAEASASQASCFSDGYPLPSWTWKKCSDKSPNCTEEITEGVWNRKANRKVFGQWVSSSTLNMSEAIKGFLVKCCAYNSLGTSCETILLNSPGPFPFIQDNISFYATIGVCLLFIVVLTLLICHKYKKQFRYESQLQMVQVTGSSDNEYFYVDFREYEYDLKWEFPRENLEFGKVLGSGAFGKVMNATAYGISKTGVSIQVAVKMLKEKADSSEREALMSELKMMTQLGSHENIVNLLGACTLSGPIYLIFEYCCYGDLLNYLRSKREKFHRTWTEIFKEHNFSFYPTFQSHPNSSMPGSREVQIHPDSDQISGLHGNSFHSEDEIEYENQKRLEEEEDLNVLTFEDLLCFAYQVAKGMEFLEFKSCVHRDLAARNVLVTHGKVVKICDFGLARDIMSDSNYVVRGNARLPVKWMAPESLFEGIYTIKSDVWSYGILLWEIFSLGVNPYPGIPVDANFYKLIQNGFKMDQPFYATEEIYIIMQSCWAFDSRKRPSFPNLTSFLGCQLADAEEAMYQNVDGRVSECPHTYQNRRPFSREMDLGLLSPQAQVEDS

**Q.** With “human FLT3L protein (from UniProt P49771 27-184) (ligand)” as the substance, how does the Kd read?
**A.** The Kd was 22.3 nM.

**Q.** And the koff?
**A.** The koff was 0.812 s⁻¹.
